Assay results: patent CN115043938A (DUAN LIANGWEI; JIANG ZHIHUA; WANG HUI, dated 2022)

Legend:
[1] = target: SARS-CoV-2野生型 S蛋白 (假病毒) (SARS-CoV-2 野生型, UniProt P0DTC2 14-1273); assay: cell-based or functional assay
[2] = target: 新型冠状病毒野生型RBD蛋白 (RBD-WT, cat#Z03479, Gensript) (SARS-CoV-2 野生型, UniProt P0DTC2 319-541); assay: BIAcore SPR, RBD immobilised on CM5 chip, antibody as analyte, 25℃, 1:1 model

B1: 抗体Amb1 (antibody, V domains shown)
VH: EVQLLESGTEVKKPGSSVKVSCKASGGTFSSYAISWVRQAPGQGLEWMGGIIPILGIANYAQKFQGRVTITADKSTSTAYMELSSLRSEDTAVYYCARERGYSGYGAAYYFDYWGQGTLVTVSS
VL: QSVLTQAPSVSGAPGQSVTISCTGSSSNIGAGYDVHWYQQLPGTAPKLLIYGNNNRPSGVPDRFSGSKSGTSASLAITGLQAEDEADYYCQSYDSSLSKGVFGGGTKLTVL
For B1, the “假病毒中和 IC50” value [1] was 0.13 µg/mL and the Kd [2] was 151 nM.

B2: 抗体Amb2 (antibody, V domains shown)
VH: EVQLLESGPGLVKPSETLSLTCTVSGGSISNSSYYWGWIRQPPGKGLEWIGSIYYSGSTYYNPSLKSRVTISVDTSKNQFSLKLSSVTAADTGVYYCASWLYGDPISFDYWGQGTLVTVSS
VL: not shown
B2 was tested, and the “假病毒中和 IC50” value [1] was 0.064 µg/mL and the Kd [2] was 164 nM.
